Measurements published in PMC7971322, “Insights into the mechanism regulating the differential expression of the P28-OMP outer membrane proteins in obligatory intracellular pathogen Ehrlichia chaffeensis”.

Columns and labels:
[1] = target: T1, rTr1 (Ehrlichia chaffeensis) (UniProt Q2GF81); experiment: DNase I footprinting; conditions: EMSA/footprint: 10 mM Tris-HCl pH 7.5, 100 mM NaCl, 1 mM DTT, 10% glycerol, 25 C, SPR: 10 mM Tris-HCl pH 7.5, 100 mM NaCl, 0.05% Tween 20, 25 C
T1 sequence: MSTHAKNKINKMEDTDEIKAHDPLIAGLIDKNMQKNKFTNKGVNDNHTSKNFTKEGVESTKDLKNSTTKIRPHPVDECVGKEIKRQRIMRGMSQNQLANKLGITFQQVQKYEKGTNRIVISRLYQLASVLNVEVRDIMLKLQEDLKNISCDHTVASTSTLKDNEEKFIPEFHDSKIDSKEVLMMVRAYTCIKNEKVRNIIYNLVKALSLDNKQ

[2] = target: T2, rEcxR (Ehrlichia chaffeensis) (UniProt Q2GG40); experiment: EMSA; conditions: EMSA/footprint: 10 mM Tris-HCl pH 7.5, 100 mM NaCl, 1 mM DTT, 10% glycerol, 25 C, SPR: 10 mM Tris-HCl pH 7.5, 100 mM NaCl, 0.05% Tween 20, 25 C
T2 sequence: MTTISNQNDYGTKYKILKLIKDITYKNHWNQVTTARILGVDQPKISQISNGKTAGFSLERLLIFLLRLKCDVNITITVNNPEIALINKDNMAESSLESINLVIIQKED

[3] = target: T1, rTr1 (Ehrlichia chaffeensis); experiment: EMSA; conditions: EMSA/footprint: 10 mM Tris-HCl pH 7.5, 100 mM NaCl, 1 mM DTT, 10% glycerol, 25 C, SPR: 10 mM Tris-HCl pH 7.5, 100 mM NaCl, 0.05% Tween 20, 25 C
[4] = target: T3, rTr1 (Ehrlichia chaffeensis, UniProt Q2GF81 1-213); experiment: SPR; EMSA/footprint: 10 mM Tris-HCl pH 7.5, 100 mM NaCl, 1 mM DTT, 10% glycerol, 25 C; SPR: 10 mM Tris-HCl pH 7.5, 100 mM NaCl, 1 mM DTT, 0.05% Tween 20, 25 C; conditions: protein: recombinant, tags: N-terminal His (pET-33b), chain copies: 2
T3 sequence: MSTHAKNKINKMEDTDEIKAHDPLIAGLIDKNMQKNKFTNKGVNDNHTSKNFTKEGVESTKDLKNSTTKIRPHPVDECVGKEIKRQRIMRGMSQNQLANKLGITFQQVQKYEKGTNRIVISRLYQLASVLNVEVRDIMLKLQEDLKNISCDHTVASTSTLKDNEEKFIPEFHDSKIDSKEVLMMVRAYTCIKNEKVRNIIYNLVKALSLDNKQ

[5] = target: T4, rEcxR (Ehrlichia chaffeensis, UniProt Q2GG40 1-108); experiment: as above; conditions: protein: recombinant, tags: C-terminal His (pET-29a), chain copies: 2, none in plain EMSA
T4 sequence: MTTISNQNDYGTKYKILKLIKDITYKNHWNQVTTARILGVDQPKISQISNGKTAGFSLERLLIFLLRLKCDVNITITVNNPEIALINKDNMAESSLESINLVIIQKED

[6] = target: T3, rTr1; experiment: competition; 50-fold unlabelled vs biotinylated region I, 1 uM rTr1; EMSA/footprint: 10 mM Tris-HCl pH 7.5, 100 mM NaCl, 1 mM DTT, 10% glycerol, 25 C; SPR: 10 mM Tris-HCl pH 7.5, 100 mM NaCl, 1 mM DTT, 0.05% Tween 20, 25 C; conditions: protein: recombinant; tags: N-terminal His (pET-33b); chain copies: 2; blunt
[7] = target: T3, rTr1; experiment: EMSA; 1.8 uM rTr1; EMSA/footprint: 10 mM Tris-HCl pH 7.5, 100 mM NaCl, 1 mM DTT, 10% glycerol, 25 C; SPR: 10 mM Tris-HCl pH 7.5, 100 mM NaCl, 1 mM DTT, 0.05% Tween 20, 25 C; conditions: protein: recombinant; tags: N-terminal His (pET-33b); chain copies: 2; blunt
[8] = target: T3, rTr1; experiment: competition; 50-fold unlabelled vs biotinylated region II, 1 uM rTr1; EMSA/footprint: 10 mM Tris-HCl pH 7.5, 100 mM NaCl, 1 mM DTT, 10% glycerol, 25 C; SPR: 10 mM Tris-HCl pH 7.5, 100 mM NaCl, 1 mM DTT, 0.05% Tween 20, 25 C; conditions: protein: recombinant; tags: N-terminal His (pET-33b); chain copies: 2; blunt

ATGATATCAATGCACTTGTTATGAAAACTTTTTTGTAATTCATATATAACCTAATAGTGACAAATAAATTAACAATAGTAGAAGTGTCATATAAAAGCAAGTCAGAATATAAATTTTTGTATAAAATATCGGTAACTTTTGTAAGGAAAATTTAATATATTACGTCAGGTAAGTAATAGCAAAAAAACTGGTTAAGTATAGTATCATGTGTAAAGGTGAGAAAAACAGCACTTATA (double strand) [p28 promoter footprint fragment]
binding [1]: binds

CCTATAACAAAGCAACCTATGTAAGATAAATCATGCATAAAGTGAATGCAATAGTTATTTAATGGATATATTCTATCTAGTTTGCTGGAATAGTATACTAATTATATAATATACAGAAATAACATATTATGCTTTATGAAATATAAGATAAAATTTATTTACTTTTTAGCTTGATTGGATCAATAATTTATATTAAACATGAAAGTCAGTTTGTCCGGGT (double strand) [tr1 promoter EMSA probe]
binding [2]: binds
binding [3]: binds

CCTATAACAAAGCAACCTATGTAAGATAAATCATGCATAAAGTGAATGCAATAGTTATTTAATGGATATATTCTATCTAGTTTGCTGGAATAGTATACTAATTATATAATATACAGAAATAACATATTATGCTTTATGAAATATAAGATAAAATTTATTTACTTTTTAGCTTGATTGGATCAATAATTTATATTAAACATGAAAGTCAGTTTGTCCGGGT (double strand) [tr1 promoter footprint fragment]
binding [1]: binds

GAATTTGTGATTTGAAATAACAAGACTTAAATGTCGAATTTAGCTTCTGTCCTAGTGGATAAGTACTTTAGCAAGTGGTAAAAGCAAGTCTACTCATATTTTTATTAATTAAGTAGTAAAGTTAACTATAGATTTTATTAAAATTTTTATTCTAATCACTTTAAATATCAATTACTTTTGTTGTAAATTTGAAAGAAATTTTATATTCTAGACTTGCTTTTCTTTATTTCTTTCATTATTCTTAAATTTTTATTATCTTTTATAAAAGGTTTATTAAC (double strand) [omp-1B promoter EMSA probe]
binding [2]: binds
binding [3]: binds

GAATTTGTGATTTGAAATAACAAGACTTAAATGTCGAATTTAGCTTCTGTCCTAGTGGATAAGTACTTTAGCAAGTGGTAAAAGCAAGTCTACTCATATTTTTATTAATTAAGTAGTAAAGTTAACTATAGATTTTATTAAAATTTTTATTCTAATCACTTTAAATATCAATTACTTTTGTTGTAAATTTGAAAGAAATTTTATATTCTAGACTTGCTTTTCTTTATTTCTTTCATTATTCTTAAATTTTTATTATCTTTTATAAAAGGTTTATTAAC (double strand) [omp-1B promoter footprint fragment]
binding [1]: binds

GTGATAGGGAATGAATTCAGAGATATTCCTGCTATGATACCCAGTACCTCAACTCTCACAGGTAATCACTTTACTATAGTAACACTAAGTGTATGCCACTTTGGAGTGGAACTTGGAGGAAGGTTTAACTTTTAATTTTATTATTGCCACATGTTAAAAATAATCTAAACTTGTTTTTATTATTGCTGCAGGTAAATAAAAATAGTGGCAAAAGAATGTAGCAATAAGAGGGGGGGGGGGGGGACTAGTTTATAAGTGCTGTTTTTCTCACCTTTA (double strand) [p28 II footprint fragment]
binding [1]: binds

B1: Tr1 protected region I (p28 promoter) (dsDNA)
DNA 1: TACACATGATACTATACTTAACCAGTTTTTTTGCTATTACTTACCTGACG
DNA 2: CGTCAGGTAAGTAATAGCAAAAAAACTGGTTAAGTATAGTATCATGT
Kd ([4]; none in plain EMSA, 5' overhang 3 nt on strand 1 (reverse oligo as printed is 47 nt)): 2.52 nM
binding result ([5]; 5' overhang 3 nt on strand 1 (reverse oligo as printed is 47 nt)): no binding

B2: Tr1 protected region I, mutated motif (dsDNA)
DNA 1: TACACATGATGGGGGGCTTAACCAGTTTTTTTGCTATTACTTACCTGACG
DNA 2: CGTCAGGTAAGTAATAGCAAAAAAACTGGTTAAGCCCCCCATCATGTGTA
binding result [6]: no binding

B3: Tr1 protected region IV (upstream of p28) (dsDNA)
DNA 1: TAATCACTTTACTATAGTAACACTAAGTGTATGCCACTTTGGAGTGGAAC
DNA 2: GTTCCACTCCAAAGTGGCATACACTTAGTGTTACTATAGTAAAGTGATTA
Kd ([4]; label: biotin for SPR (note on S35), blunt): 14 nM

B4: Tr1 protected region III (tr1 promoter) (dsDNA)
DNA 1: TAAAGCATAATATGTTATTTCTGTATATTATATAAT
DNA 2: ATTATATAATATACAGAAATAACATATTATGCTTTA
binding result [7]: binds

B5: Tr1 protected region II (omp-1B promoter) (dsDNA)
DNA 1: AGTAAAGTTAACTATAGATTTTATTAAAATTTTTATTCTAATCACTTTAA
DNA 2: TTAAAGTGATTAGAATAAAAATTTTAATAAAATCTATAGTTAACTTTACT
Kd ([4]; none in plain EMSA, blunt): 15.5 nM
binding result ([5]; blunt): no binding

B6: Tr1 protected region II, mutated motif (dsDNA)
DNA 1: AGTAAAGTTAGGGGGGGATTTTATTAAAATTTTTATTCTAATCACTTTAA
DNA 2: TTAAAGTGATTAGAATAAAAATTTTAATAAAATCCCCCCCTAACTTTACT
binding result [8]: no binding
